In one assay the test system is H4 cells. In words: α-syn toxicity assay, adenylate kinase released into the media. Type of assay: cell-based. As to conditions: co-transfected with wildtype α-syn; 24 hours after transfection; vs empty vector. How it is done: Briefly, H4 cells were transfected with wildtype α-syn and each of the 14-3-3 polypeptide isoforms or empty vector controls as discussed above. Twenty-four hours after transfection, cell death was assayed by adenylate kinase activity in the media (n=4, *p<0.05, **p<0.01, ***p<0.001).
Primers against each of the human 14-3-3 isoforms were designed using Primer3. Primers against 14-3-3β (NM_018753) were 5′ […] 3′ (forward; SEQ ID NO. 9) and 5′ […] 3′ (reverse; SEQ ID NO. 10). Primers against 14-3-3ε (NM_009536) were 5′ […] 3′ (forward; SEQ ID NO. 11) and 5′ […] 3′ (reverse; SEQ ID NO. 12). Primers against 14-3-3γ (NM_018871) were 5′ […] 3′ (forward; SEQ ID NO. 13) and 5′ […] 3′ (reverse; SEQ ID NO. 14). Primers against 14-3-3η (NM_011738) were 5′ […] 3′ (forward; SEQ ID NO. 15) and 5′ […] 3′ (reverse; SEQ ID NO. 16). Primers against 14-3-3θ (NM_011739) were 5′ […] 3′ (forward; SEQ ID NO. 17) and 5′ […] 3′ (reverse; SEQ ID NO. 18). Primers against 14-3-3σ (NM_018754) were 5′ […] 3′ (forward; SEQ ID NO. 19) and 5′ […] 3′ (reverse; SEQ ID NO. 20). Primers against 14-3-3ζ(NM_011740) were 5′ […] 3′ (forward; SEQ ID NO. 21) and 5′ […] 3′ (reverse; SEQ ID NO. 22). Primers against GAPDH were 5′ tggtgaagcaggeatctga 3′ (forward; SEQ ID NO. 23) and 5′ […] […] All cells stained for α-syn were scored as positive or negative for α-syn aggregates, with the rater blind to experimental condition. • α-syn toxicity assay H4 cells were transfected with α-syn and either empty vector control or a 14-3-3 isoform using Superfect transfection reagent (Qiagen). 24 hours after transfection, toxicity was measured by the amount of adenylate kinase released into the media using the ToxiLight™ kit (Cambrex). • Creation of stable cell lines Each 14-3-3 isoform was subcloned into the mammalian expression vector mcDNA3.1/V5-His (Invitrogen). […] Protein concentrations of supernatants were determined by the bicinchoninic acid assay (BCA; Pierce, Rockford, Ill.). […]

The next assay deals with naïve M17 cells. In words: Rotenone toxicity after transient transfection, scoring of apoptotic nuclei. Type of assay: cell-based, human. As to conditions: rotenone 0, 0.2 or 1 μM for 24 hours, vs control transfection. As for the experimental part: FIGS. 6A-D show M17 cells overexpressing 14-3-3θ are resistant to rotenone treatment. Cell lines stably-transfected with either 14-3-3θ or empty vector were treated with varying concentrations of rotenone (0-25 μM) for 24 hours (FIG. 6A), 30 hours (FIG. 6B), or 48 hours (FIG. 6C). Cell death was assayed by LDH release into the culture media. LDH release into media was normalized to total LDH release for each well. The 14-3-3θ-overexpressing line was more resistant to rotenone in a dose-dependent manner compared to control stable cells at all time points tested. […] Rater was blind to experimental condition. n=8 for each experimental condition. *p<0.05, ***p<0.001 (Bonferroni's multiple comparison test).
The effects of 14-3-3θ overexpression on rotenone toxicity was also examined by transient transfection of this isoform into naïve M17 cells. Briefly, M17 cells were transfected with V5-tagged 14-3-3θ isoform or enhanced yellow fluorescent protein (EYFP) (control) and were treated with rotenone for 24 hours at 0, 0.2, or 1 μM rotenone. Because of the relatively low rates of transfection, after the treatment period cells were fixed and stained against V5 (or GFP in the case of control), followed by Hoechsht 33342 staining. With the rater blind to experimental condition, the nuclei of cells that stained for V5 or GFP were scored as normal or apoptotic.

The test system of assay [1] is Transgenic C. elegans worms that overexpress human wildtype α-syn. In words: Dopaminergic neuron loss in α-syn transgenic worm model. The note with it: human 14-3-3θ overexpressed along with α-syn. Type of assay: in vivo. The text has this: FIG. 10. Overexpression of 14-3-3θ protects against dopaminergic cell loss in the α-syn transgenic C. elegans worm model. Double transgenic worms were created in which the 14-3-3θ isoform was overexpressed along with α-syn.
We turned to the C. elegans model of PD, in which human wildtype α-syn is overexpressed. […] Double transgenic worms were created in which the 14-3-3θ isoform was overexpressed along with α-syn. […] In contrast, 18.9% of worms that overexpressed human 14-3-3θ along with α-syn had all six dopaminergic neurons at seven days (FIG. 10; p<0.001 compared to α-syn worms). 12.9% of worms had the full anterior complement of dopaminergic neurons at 10 days (FIG. 10; p<0.00001).

B1: 14-3-3ζ: 14-3-3 polypeptide ζ isoform, overexpressed from expression vector (protein, UniProt P63104 1-245, looked up)
14-3-3 protein zeta/delta: MDKNELVQKAKLAEQAERYDDMAACMKSVTEQGAELSNEERNLLSVAYKNVVGARRSSWRVVSSIEQKTEGAEKKQQMAREYREKIETELRDICNDVLSLLEKFLIPNASQAESKVFYLKMKGDYYRYLAEVAAGDDKKGIVDQSQQAYQEAFEISKKEMQPTHPIRLGLALNFSVFYYEILNSPEKACSLAKTAFDEAIAELDTLSEESYKDSTLIMQLLRDNLTLWTSDTQGDEAEAGEGGEN
On to B1, for which, in the assay on H4 cells, the “effect on α-syn dependent cell death (adenylate kinase activity in the media)” value is given as “protective effects”.

B2: 14-3-3θ: 14-3-3 polypeptide θ isoform, overexpressed from V5/His-tagged pcDNA3.1 vector (or as transgene in C. elegans) (protein, UniProt P27348 1-245, looked up)
14-3-3 protein theta: MEKTELIQKAKLAEQAERYDDMATCMKAVTEQGAELSNEERNLLSVAYKNVVGGRRSAWRVISSIEQKTDTSDKKLQLIKDYREKVESELRSICTTVLELLDKYLIANATNPESKVFYLKMKGDYFRYLAEVACGDDRKQTIDNSQGAYQEAFDISKKEMQPTHPIRLGLALNFSVFYYEILNNPELACTLAKTAFDEAIAELDTLNEDSYKDSTLIMQLLRDNLTLWTSDSAGEECDAAEGAEN
modifications: V5/His tag
On to B2, for which the “effect on α-syn dependent cell death (adenylate kinase activity in the media)” value in the assay with H4 cells was “protective effects”. Moreover, the “cell death (apoptotic nuclei) in response to rotenone treatment” value in the assay with naïve M17 cells is on record as “decreased cell death”. Besides, the “worms with the full anterior complement of dopaminergic neurons” value in assay [1] (10 days) was found to be 12.9%. The “worms with all six anterior dopaminergic neurons present” value in assay [1] (seven days) was 18.9%.

For the origin of these results see patent publication US7919262B2, “14-3-3 proteins for diagnosis of Parkinson's disease” (The UAB Research Foundation, priority 2007, dated 2011).
